In patent US20200223912A1 one finds EC50 and selectivity over non-phosphorylated Tau peptide data, which are given here for 2 molecules.

Experiment [1] deals with human Tau(pS422) fragment (residues 416 to 430 with phosphorylated serine 422) (human). The experiment is described as follows: ELISA, coated antigen. For orientation: In an ELISA, binding on a coated surface is turned into a signal by an enzyme label.
Experiment [2] shares this target. In words: ELISA, biotinylated peptide on streptavidin plate.
The target is the same in experiment [3]. In words: ELISA, ratio of EC50 values.

B1: VH32/VL21 (antibody, V domains shown)
VH: EVQVLESGGGLVQPGGSLRLSCAVSGFSLSSNAINWVRQAPGKGLEWVGYIAVSGNTYYASWAKGRFTISRDNSKNTVYLQMNSLRAEDTAVYYCGKSNIWGQGTLVTVSS
VL: AQVMTQSPSSLSASVGDRVTITCRSSQSVRTNKLAWFQQKPGQPPKRLIYSASTLDFGVPSRFSGSGSGTEFTLTISSLQPEDFATYYCLGYFDSSADIVAFGGGTKVEIK
The term EC50 denotes the concentration giving half of the maximal effect. A low value points to greater potency. In turn, B1 had an EC50 in experiment [1] of 4.4 ng/mL.

B2: rabbit antibody Mab 086 (VH00/VL00) (antibody, V domains shown)
VH: QSVEESGGRLVTPGTPLTLTCTVSGFSLSSNAINWVRQAPGKGLEWIGYIAVSGNTYYASWAKGRFTISKASTTVDLKMTSPTAEDTGTYFCGKSNIWGPGTLVTVSL
VL: AQVLTQTTSPVSAAVGSTVTISCQSSQSVRTNKLAWFQQKPGQPPKRLIYSASTLDFGVPSRFSASGSGTQFTLTISDVQCDDAATYYCLGYFDCSIADCVAFGGGTEVVVK
Turning to B2, the results for the EC50 in experiment [1] and in experiment [2] were 6.3 ng/mL and 1.1 ng/mL, respectively. In addition, the selectivity over non-phosphorylated Tau peptide in experiment [3] was more than 100 fold.
